# Reference: US20240252631A1, “METHODS OF USING ACTIVIN RECEPTOR TYPE II SIGNALING INHIBITORS” (Keros Therapeutics, Inc., priority 2021, published 2024)
# Changes are numbered by the printed parent chain. Entries after “also recorded” stand apart in the source; their conditions may differ.
# B1: activin A: ActRII ligand of the TGF-β superfamily used to treat bone marrow cells ex vivo (protein, UniProt P08476 311-426, looked up)
# Inhibin beta A chain: GLECDGKVNICCKKQFFVSFKDIGWNDWIIAPSGYHANYCEGECPSHIAGTSGSSLSFHSTVINHYRMRGHSPFANLKSCCVPTKLRPMSMLYYDDGQNIIKKDIQNMIVEECGCS
# B2: SEQ ID NO: 85: ActRIIA variant with substitution of alanine (A) for lysine (K) at X17 (protein)
# chain: GAILGRSETQECLFYNANWELERTNQTGVERCEGEKDKRLHCYATWRNISGSIEIVAKGCWLDDFNCYDRTDCVETEENPQVYFCCCEGNMCNEKFSYFPEMEVTQPTS
# B3: ActRIIA/B-mFc: SEQ ID NO: 69 fused to a mouse Fc domain by way of a linker (protein)
# chain: B2 chain with A57K
# modifications: left off: a dimerising Fc or GST
# Tests used:
# C57BI/6 mice [1] = test: ActRIIA/B-mFc in combination with ruxolitinib (ruxolitinib-induced anemia); format: in vivo, mouse
# Description: To examine whether treatment with ActRIIA/B-mFc can overcome ruxolitinib-induced anemia, a pharmacological assessment was conducted in mice. Ten- to twelve-week-old, female, C57BI/6 mice were dosed orally with either vehicle (n=10) or ruxolitinib at 90 mg/kg (n=20) or 120 mg/kg (n=20) twice daily. After 37 days of ruxolitinib therapy, blood was sampled via cheek bleed for hematological assessment. On Day 41, mice from each ruxolitinib dose were divided into two groups that received either TBS (vehicle) (n=10) or ActRIIA/B-mFc (7.5 mg/kg, n=10 per group), IP twice weekly for 14 days concomitant to continued ruxolitinib dosing. Hematological parameters were assessed in whole blood with the use of a Heska Element HT5 veterinary hematology analyzer.
# ActRIIB = ActRIIB (Homo sapiens, UniProt Q13705); settings: Townson et al., J. Biol. Chem. 287:27313, 2012; cited from earlier work
# Chain of ActRIIB (Q13705 19-512, species assumed): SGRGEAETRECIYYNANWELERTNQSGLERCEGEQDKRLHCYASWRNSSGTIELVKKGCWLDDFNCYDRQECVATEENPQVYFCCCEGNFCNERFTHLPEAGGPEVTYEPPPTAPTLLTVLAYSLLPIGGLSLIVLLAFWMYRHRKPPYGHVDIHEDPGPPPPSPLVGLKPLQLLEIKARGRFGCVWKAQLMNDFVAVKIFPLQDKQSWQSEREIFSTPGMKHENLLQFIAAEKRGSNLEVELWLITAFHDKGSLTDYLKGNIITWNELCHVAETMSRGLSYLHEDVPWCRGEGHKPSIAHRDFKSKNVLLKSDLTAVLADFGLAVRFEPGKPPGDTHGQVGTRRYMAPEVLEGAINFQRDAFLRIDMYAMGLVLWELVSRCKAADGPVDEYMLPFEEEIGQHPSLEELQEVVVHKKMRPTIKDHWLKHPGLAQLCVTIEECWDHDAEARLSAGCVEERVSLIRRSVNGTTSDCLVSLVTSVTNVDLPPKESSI
# [2] = system: Bone marrow cells from 11-week-old C57BI/6 mice; test: Ex-vivo treatment of bone marrow cells, ploidy of megakaryocyte precursors by flow cytometry; format: cell-based, mouse; settings: six days
# Description: Bone marrow cells from 11-week-old C57BI/6 mice were isolated and treated with Activin A ([…]), ActRIIA/B-mFc ([…]), or a combination of both for six days. Cells were harvested after six days and analyzed using flow cytometry (N=2).
# [3] = Activity in vivo of ActRIIA variant substituted at X17; settings: substitution of alanine (A) for lysine (K) at X17
# C57BI/6 mice [4] = test: Effect of a single dose of ActRIIA/B-mFc on platelet numbers at day 37, 51 and 85; format: in vivo, mouse; settings: single dose 10 mg/kg subcutaneous
# Description: Eleven-week-old C57BI/6 mice were given a single dose of either TBS (vehicle) or ActRIIA/B-mFc (10 mg/kg) via subcutaneous administration. Separate cohorts of mice from both dosing groups were sampled for whole blood at study day 37, 51 and 85, and platelet counts were determined using a veterinary hematology analyzer (Heska Element HT5).
# [5] = system: mouse model of immune thrombocytopenia; test: Platelet recovery following anti-GP1bα platelet depletion; format: in vivo
# Description: Twelve-week-old mice were treated with either anti-GP1bα (0.08 mg/kg, Efferet) or IgG control. At day 4 after treatment, the anti-GP1bα treated group was further divided to receive either vehicle or ActRIIA/B-mFc (7.5 mg/kg) treatment. Platelets were measured at indicated time points post anti-GP1bα dosing. At day 10 post-treatment, mice were euthanized and bone marrow cells were harvested. Bone marrow cells were fixed in ice-cold 100% ethanol and stained with Propidium lodide (PI) (200 μg/mL, Sigma-Aldrich) and anti-CD41 (FITC conjugated, Emfret Analytics) antibody in parallel with RNase treatment (2 mg/ml, Invitrogen). Samples were analyzed by flow cytometer (Cytoflex, Beckman coulter) and % CD41+ nucleated cells (PI+ cells) was measured.
# C57BI/6 mice [6] = test: Effect of ActRIIA/B-mFc on megakaryocyte maturation (CD41+ cells and ploidy by flow cytometry); format: in vivo, mouse; settings: 10 mg/kg, bone marrow
# Description: Eleven-week-old C57BI/6 mice were dosed with either TBS (Vehicle) or ActRIIA/B-mFc (10 mg/kg) via IP administration. Twelve and twenty-four hour later mice were euthanized and bone marrow extracted from the femurs. Bone marrow cells were fixed in ethanol following by a staining with Propidium lodide (PI) and anti CD41 (FITC, Efferet) antibody in parallel with RNAse treatment. Samples were analyzed by flow cytometer (Cytoflex, Beckman coulter). Ploidy of CD41+ nucleated cells (PI+ cells) was analyzed. Graphs represent % cells at each ploidy stage. For 12HR N=3 and for 24HR N=2. For CD41+ cells at 12HR time point a t-test was performed for statistical analysis. Data are presented as mean±SEM.
# C57BI/6 male mice = test: Effect of an anti-activin A antibody on platelet numbers 24 hours post-dose; format: in vivo, mouse; settings: intraperitoneal, anti-activin A 5 mg/kg, ActRIIA/B-mFc 10 mg/kg, vs TBS
# Description: Ten-week-old C57BI/6 male mice were dosed with either TBS (vehicle), anti-activin A antibody (described in WO2008031061A2, 5 mg/kg), or ActRIIA/B-mFc (10 mg/kg) via intraperitoneal administration. Twenty-four hours post-dose whole blood was sampled, and platelet counts were determined using a veterinary hematology analyzer (Hematrue).
# [7] = system: TPO^high model of myelofibrosis; test: TPO^high model of myelofibrosis: platelets, red blood cell parameters, spleen weight, immune cells; format: in vivo, mouse
# Description: The TPO^high model of myelofibrosis induces a myelofibrotic-like pathology through elevated exposure to thrombopoietin, the native endocrine inducer of megakaryocyte progenitor proliferation and development. Seven-week-old C57BI/6 albino mice (B6(Cg)-Tyr, Jackson Laboratory) were teil-vein injected with 0.75 mg/kg thrombopoietin (TPO) expressing plasmid cloned into pLEV113 plasmid (Lake Pharma). The injection was done in hydrodynamic approach in which 100 ml/kg volume is injected in a short period of time (6-10 seconds). On day 3 after TPO injection mice were divided into 2 groups receiving either vehicle (TBS) or ActRIIA/B-mFc (7.5 mg/kg), twice weekly. Mice were sacrificed on day 14 after TPO injection. Hematological parameters were measured using the Heska Element HT5 veterinary hematology analyzer.
# C57BI/6 mice [8] = test: Effect of ActRIIA/B-mFc on platelets and bone marrow megakaryocyte progenitors 12 hours post-dose; format: in vivo, mouse; settings: single dose 10 mg/kg IP
# Description: Eleven-week-old C57BI/6 mice were dosed with either TBS (Vehicle) or ActRIIA/B-mFc (10 mg/kg) via intraperitoneal (IP) administration. Twelve hours post-dose whole blood was sampled, and platelet counts were determined using a veterinary hematology analyzer (Heska Element HT5). Mice were then euthanized, and bone marrow extracted from the femurs. Bone marrow cells were stained with antibodies against Lineage (Perc-Cy5), sca1 (BV525), cKit (Alexa750), CD41 (APC) and CD150 (Pcy7) and analyzed on flow cytometer (Cytoflex, Beckman coulter). Megakaryocyte progenitors were gated on Lin−; sca1−; ckit+; CD150+; CD41+ cells.
# [9] = ruxolitinib alone, 90 or 120 mg/kg orally twice daily, after 37 days
# [10] = 7.5 mg/kg IP twice weekly for 14 days, continued ruxolitinib
# [11] = 7.5 mg/kg twice weekly from day 3, day 14 after TPO injection
molecule,measurement,setting,value
"N#CC[C@H](C1CCCC1)n1cc(-c2ncnc3[nH]ccc23)cn1 [ruxolitinib, reference compound]",RBC volume,C57BI/6 mice [1]; [9],reduced
same,hematocrit,C57BI/6 mice [1]; [9],reduced
same,hemoglobin,C57BI/6 mice [1]; [9],reduced
"BMP9: bone morphogenetic protein, ligand in the TGF-β superfamily",binding affinity for ActRIIB relative to ActRIIA,ActRIIB,about 300 fold
B1,2N ploidy levels,[2]; Activin A (5 mg/kg),increased
same,extent of polyploidy (higher ploidy levels),[2]; Activin A (5 mg/kg),reduced
B2,activity in vivo,[3],reduced activity
B3,duration of increased circulating platelets after a single dose,C57BI/6 mice [4],at least 85 days
same,circulating platelets,"C57BI/6 mice [4]; day 37, 51 and 85",increased
same,recovery of platelet numbers following platelet depletion,"[5]; 7.5 mg/kg at day 4 after anti-GP1bα (0.08 mg/kg), compared to vehicle treated mice",accelerated recovery
same,increase in the number of CD41+ megakaryocyte progenitors in the bone marrow compared to the vehicle-treated group,"[5]; 7.5 mg/kg, day 10 after platelet depletion",25%
same,4N ploidy level,"[5]; 7.5 mg/kg, day 10 after platelet depletion, vs vehicle",higher
same,number of CD41+ megakaryocyte progenitors,C57BI/6 mice [6]; 12 hours after treatment,increase
same,number of polyploid megakaryocytes,C57BI/6 mice [6]; by 24 hours,increase
same,platelets in wild-type mice,C57BI/6 male mice,increased
same,activin-mediated changes in megakaryocyte precursors (ploidy),[2]; ActRIIA/B-mFc (10 mg/kg) with Activin A (5 mg/kg),reversed
same,ruxolitinib-associated reduction in RBC volume,C57BI/6 mice [1]; [10],abrogated
same,ruxolitinib-associated reduction in hematocrit,C57BI/6 mice [1]; [10],abrogated
same,ruxolitinib-associated reduction in hemoglobin,C57BI/6 mice [1]; [10],abrogated
same,body weight in mice treated with ruxolitinib,C57BI/6 mice [1]; ActRIIA/B-mFc 7.5 mg/kg IP twice weekly for 14 days with ruxolitinib 90 or 120 mg/kg twice daily,increased
same,"RBC metrics (red blood cells, hemoglobin, hematocrit, mean corpuscular hemoglobin concentration)",[7]; [11],significant improvement
same,TPO-mediated increase in lymphocytes,[7]; [11],reduced
same,TPO-mediated increase in white blood cells,[7]; [11],reduced
same,development of anemia,[7]; [11],reduce
same,expansion of platelets,[7]; [11],significant attenuation; also recorded: attenuated
same,splenomegaly,[7]; [11],significant reduction
same,splenic extra medullary hematopoiesis,"[7]; inferred from splenomegaly, 7.5 mg/kg twice weekly, day 14",reduced
same,bone marrow megakaryocyte progenitors,"C57BI/6 mice [8]; Lin-, sca1-, ckit+, CD150+, CD41+ cells",increased
same,circulating platelet numbers,C57BI/6 mice [8]; vs TBS vehicle,increased
